Numbering of substitutions follows the chain as printed.

The chains are these.
B1: 368_A06 (antibody, V domains shown)
VH: EVQLLESGGGLVQPGGSLRLSCAASGFTFDSYSMHWVRQAPGKGLEWVAGINYNSGYKGYADSVKGRFTISRDNSKNTLYLQMNSLRAEDTAVYYCARAANWHDTHLDYWGQGTLVTVSS
VL: DIQMTQSPSSLSASVGDRVTITCRASQSILSYVNWYQQKPGKAPKLLIYAATSRHSGVPSRFSGSGSGTDFTLTISSLQPEDFATYYCQQSYNSPLTFGGGTKVEIK
B2: 374_C09 (antibody, V domains shown)
VH: B1 VH with S33G, H35N, A49S, G50S, S55G, A99G
VL: B1 VL with L30V, V33L, L47V, H55A, N93E, S94L
B3: 374_D03 (antibody, V domains shown)
VH: B1 VH with H35N, S55G, G59S, A99G
VL: B1 VL with L30V, S31T, V33L, H55A, N93D, S94T
B4: 374_B05 (antibody, V domains shown)
VH: B1 VH with H35N, A49S, K58T, G59S, A99G, H106A
VL: B1 VL with L30V, V33L, N93E
B5: 374_C01 (antibody, V domains shown)
VH: B1 VH with S33G, H35N, A49S, G59S, A99G, H106A
VL: B1 VL with S31T, V33L, H55A, N93E, S94T
B6: 368_A12 (antibody, V domains shown)
VH: B1 VH with A49S, G50S, H106A
VL: B1 VL with S31T, V33L, L47V, H55A, N93D
B7: 374_F07 (antibody, V domains shown)
VH: B1 VH with H35N, G50S, S55G, K58T, A99G
VL: B1 VL with V33L, L47V, A51V, R54L, H55A, N93E
B8: 374_D05 (antibody, V domains shown)
VH: B1 VH with H35N, A49S, K58T, A99G
VL: B1 VL with S31T, V33L, H55A, N93D, S94T
B9: 374_D10 (antibody, V domains shown)
VH: B1 VH with D30S, S33G, G50S, S55G, K58T, G59S, A99G
VL: B1 VL with S31T, H55A, N93D, S94N
B10: 374_B08 (antibody, V domains shown)
VH: B1 VH with H35N, S55G, K58T, G59S, A99G, H106A
VL: B1 VL with L30V, N93E, S94L
B11: 374_D07 (antibody, V domains shown)
VH: B1 VH with H35N, A49S, G59S, A99G, H106A
VL: B1 VL with L30V, V33L, L47V, R54L, H55A
B12: 374_B03 (antibody, V domains shown)
VH: B1 VH with H35N, A49S, S55G, K58T, G59S, A99G, H106A
VL: B1 VL with S31T, V33L, L47V, H55A, N93D
B13: 374_E10 (antibody, V domains shown)
VH: B1 VH with D30S, H35N, A49S, S55G, G59S, A99G, H106A
VL: B1 VL with V33L, N93D
B14: 374_B10 (antibody, V domains shown)
VH: B1 VH with D30S, H35N, A49S, G50S, K58T, G59S, A99G
VL: B1 VL with S31T, L47V, R54L, H55A, N93D, S94T
B15: 374_E12 (antibody, V domains shown)
VH: B1 VH with D30S, H35N, A49S, S55G, G59S, A99G, H106A
VL: B1 VL with V33L, L47V, H55A, N93D, S94N
B16: 374_D06 (antibody, V domains shown)
VH: B1 VH with D30S, H35N, A49S, S55G, K58T, G59S, A99G, H106A
VL: B1 VL with L47V, H55A, N93D
B17: 374_C12 (antibody, V domains shown)
VH: B1 VH with D30S, H35N, S55G, G59S, A99G, H106A
VL: B1 VL with S31T, V33L, L47V, H55A, Y92D

This assay concerns the target human Fc (human). The experiment in a line: ELISA, negative control.
B1 came in with an optical density of 0.483 OD.

As for B2, the optical density was determined as 0.154 OD.

B3 came in with an optical density of 0.216 OD.

Molecule B4 displayed an optical density of 0.168 OD.

On to B5, for which the optical density worked out at 0.167 OD.

B6: the optical density stood at 0.425 OD.

Molecule B7 gave an optical density of 0.176 OD.

B8: the optical density amounted to 0.171 OD.

B9 yielded an optical density of 0.329 OD.

On to B10, for which the optical density is 0.188 OD.

Consider B11, for which the optical density came to 0.176 OD.

On to B12, for which the optical density turned out to be 0.166 OD.

In turn, B13 gave an optical density of 0.165 OD.

Molecule B14 yielded an optical density of 0.17 OD.

B15 yielded an optical density of 0.177 OD.

In the case of B16, the optical density was found to be 0.172 OD.

Consider B17, for which the optical density was 0.308 OD.

The values above are taken from patent US20210380703A1.
